The values below come from article PMC4843017 (2016).

Read-outs that look alike come from different tables or passages of the source.

For assay [1], the target named is T1, taxol-stabilized microtubules (α-/β-tubulin) (bovine, UniProt P81947 1-451; Q6B856 1-445).
In assay [2] the target is T1, taxol-stabilized microtubules …. This is another data set of the same source.

T1 sequence (P81947 whole entry, chain 1 of 2): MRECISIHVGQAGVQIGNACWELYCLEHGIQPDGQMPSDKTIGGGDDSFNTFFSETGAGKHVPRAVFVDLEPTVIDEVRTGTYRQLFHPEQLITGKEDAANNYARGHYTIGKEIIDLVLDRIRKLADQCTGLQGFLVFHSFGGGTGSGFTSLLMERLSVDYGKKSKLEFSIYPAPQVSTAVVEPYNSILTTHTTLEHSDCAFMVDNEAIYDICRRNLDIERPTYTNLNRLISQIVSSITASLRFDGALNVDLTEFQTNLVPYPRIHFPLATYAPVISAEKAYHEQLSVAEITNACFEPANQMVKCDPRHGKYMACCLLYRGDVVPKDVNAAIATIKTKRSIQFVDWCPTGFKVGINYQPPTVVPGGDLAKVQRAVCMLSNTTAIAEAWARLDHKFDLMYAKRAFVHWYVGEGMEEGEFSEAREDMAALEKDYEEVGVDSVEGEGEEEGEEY
T1 sequence (Q6B856 whole entry, chain 2 of 2): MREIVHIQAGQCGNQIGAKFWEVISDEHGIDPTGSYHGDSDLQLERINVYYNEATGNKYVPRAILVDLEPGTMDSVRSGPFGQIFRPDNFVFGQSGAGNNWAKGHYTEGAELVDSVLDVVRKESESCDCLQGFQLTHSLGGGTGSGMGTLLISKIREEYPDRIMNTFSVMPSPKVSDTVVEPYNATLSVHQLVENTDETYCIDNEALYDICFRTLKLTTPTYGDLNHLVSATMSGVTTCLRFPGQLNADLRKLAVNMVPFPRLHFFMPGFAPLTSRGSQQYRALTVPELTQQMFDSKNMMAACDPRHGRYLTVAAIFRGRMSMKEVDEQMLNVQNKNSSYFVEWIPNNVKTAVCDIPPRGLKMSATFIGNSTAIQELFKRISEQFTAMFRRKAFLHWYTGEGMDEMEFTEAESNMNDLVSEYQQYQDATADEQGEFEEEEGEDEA

B1: SKAP^159–316 (expressed alone in E. coli) (domain or fragment)
chain: VRKGYKPLSKQKSEEELKDKNQLLEAVNKQLHQKLTETQGELKDLTQKVELLEKFRDNCLAILESKGLDPALGSETLASRQESTTDHMDSMLLLETLQEELKLFNETAKKQMEELQALKVKLEMKEERVRFLEQQTLCNNQVNDLTTALKEMEQLLEM
As a reminder, the Kd is the equilibrium constant for the complex coming apart. Lower therefore signals higher affinity. Molecule B1 returned a Kd in assay [1] of 1620 nM.

B2: SKAP^103–225 (domain or fragment)
chain: TQTRATSKSLLPVRSKEVDVSKQLHSGGPENDVTKITKLRRENGQMKATDTATRRNVRKGYKPLSKQKSEEELKDKNQLLEAVNKQLHQKLTETQGELKDLTQKVELLEKFRDNCLAILESKG
For B2, the dissociation constant (Kd) in assay [2] was 1100 nM. In other words, the single-digit micromolar range.
